Our source for the IC50 (read off the curve) values is US20230015713A1.

The experiment addresses recombinant human FcγRIIa (131H)-glutathione-S-transferase (human) (UniProt P12318). Kind of experiment: AlphaScreen competition: the antibody inhibits binding of FcγRIIa (131H)-GST to biotinylated human IgG1 (m6).

On to “romosozumab PARG (SEQ ID NO: 8) C-terminal variant (antibody)”, for which the IC50 (read off the curve) came out at 20 nM. Regarding wild-type romosozumab (antibody), the IC50 (read off the curve) was 100 nM.
